Molecular target: toripalimab Fab, wild type
Assay: SPR; Carterra LSA; Fab from the ammonium sulfate precipitate of the culture supernatant immobilised on a NiHC200M chip; hPD-1 (1-1024 nM) or mPD-1-Fc (4-1024 nM) as analyte, fourfold dilution series, no regeneration; HBS-EP pH 7.4, 25 °C; medians over the spots of a construct, KD = koff/kon

Chain of mouse programmed cell death protein 1 Fc fusion protein (mPD-1-Fc), mPD-1 C60S (aa 25-167) (Q02242 25-167, stated change not applied): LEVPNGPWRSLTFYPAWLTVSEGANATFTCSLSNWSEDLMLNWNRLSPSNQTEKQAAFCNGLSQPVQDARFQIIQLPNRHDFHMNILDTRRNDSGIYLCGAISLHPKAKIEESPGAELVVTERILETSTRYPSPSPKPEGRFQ
Chain of toripalimab Fab, wild type (heavy, as listed by the source, chain 1 of 2): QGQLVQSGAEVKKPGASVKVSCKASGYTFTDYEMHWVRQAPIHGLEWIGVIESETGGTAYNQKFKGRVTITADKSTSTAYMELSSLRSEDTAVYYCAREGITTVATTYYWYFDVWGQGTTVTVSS
Chain of toripalimab Fab, wild type (light, as listed by the source, chain 2 of 2): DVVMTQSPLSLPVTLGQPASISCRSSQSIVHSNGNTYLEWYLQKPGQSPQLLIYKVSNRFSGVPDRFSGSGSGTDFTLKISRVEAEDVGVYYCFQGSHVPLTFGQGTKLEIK

Substance: mouse programmed cell death protein 1 Fc fusion protein (mPD-1-Fc), mPD-1 C60S (aa 25-167) (from UniProt Q02242 25-167)
- Kd: 136 nM
- koff: 0.00548 s⁻¹
- kon: 40300 M⁻¹ s⁻¹

— PMC10663500
